pKd: −log10 of the molar value. Where two headings read alike, the source gives them in different places.

Experiment in all cases: resonant mirror detection
The target of one test is calmodulin (UniProt P0DP23).
Test [1] addresses p55 (UniProt Q00013).
The target in test [2] is cytoplasmic domain of band 3 (UniProt P02730).
The target of test [3] is cytoplasmic domain of glycophorin C (UniProt P04921).
Test [4] concerns the target cytoplasmic domain of CD44 (UniProt P16070).
In test [5] the target is p55 (UniProt Q00013). The source holds these as a separate data set.
Sequence of p55 (Q00013 whole entry, the tested form may be a part): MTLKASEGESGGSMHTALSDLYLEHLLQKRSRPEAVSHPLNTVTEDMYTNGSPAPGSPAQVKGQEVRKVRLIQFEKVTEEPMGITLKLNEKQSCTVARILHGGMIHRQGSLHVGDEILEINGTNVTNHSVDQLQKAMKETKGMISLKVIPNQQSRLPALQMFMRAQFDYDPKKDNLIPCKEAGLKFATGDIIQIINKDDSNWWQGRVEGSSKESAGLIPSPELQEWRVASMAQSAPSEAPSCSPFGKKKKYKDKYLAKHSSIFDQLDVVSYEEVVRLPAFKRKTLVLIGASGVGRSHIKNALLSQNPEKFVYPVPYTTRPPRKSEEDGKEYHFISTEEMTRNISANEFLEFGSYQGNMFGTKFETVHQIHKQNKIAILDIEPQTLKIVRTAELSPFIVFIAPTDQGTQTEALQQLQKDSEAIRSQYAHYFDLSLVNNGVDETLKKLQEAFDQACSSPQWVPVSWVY
The target in test [6] is cytoplasmic domain of band 3 (UniProt P02730). The source holds these as a separate data set.
The target of test [7] is cytoplasmic domain of glycophorin C (UniProt P04921). The source holds these as a separate data set.
For test [8], the target named is cytoplasmic domain of CD44 (UniProt P16070). This is another data set of the same source.
Sequence of cytoplasmic domain of CD44 (P16070 671-742): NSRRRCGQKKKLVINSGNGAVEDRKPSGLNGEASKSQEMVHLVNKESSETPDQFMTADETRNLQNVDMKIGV

Sequence of cytoplasmic domain of band 3 (P02730 1-403): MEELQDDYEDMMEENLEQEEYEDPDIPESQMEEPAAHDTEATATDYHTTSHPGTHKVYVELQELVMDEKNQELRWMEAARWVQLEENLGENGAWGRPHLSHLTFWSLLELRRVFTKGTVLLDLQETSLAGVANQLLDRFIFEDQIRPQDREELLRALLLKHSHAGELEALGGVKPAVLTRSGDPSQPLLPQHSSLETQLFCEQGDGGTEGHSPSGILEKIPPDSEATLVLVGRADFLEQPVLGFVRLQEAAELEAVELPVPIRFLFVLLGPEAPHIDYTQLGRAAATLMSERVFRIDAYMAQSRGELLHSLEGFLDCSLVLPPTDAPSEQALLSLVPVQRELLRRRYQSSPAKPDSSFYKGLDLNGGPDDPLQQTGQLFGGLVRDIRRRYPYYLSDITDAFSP
Sequence of cytoplasmic domain of glycophorin C (P04921 82-128): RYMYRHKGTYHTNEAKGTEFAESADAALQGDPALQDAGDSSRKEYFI

For “G30 (30kDa membrane binding domain of protein 4.1G) (from UniProt O43491 1-1005) (domain or fragment)”, the pKd (commonly −log10 of the Kd, conventionally taken in molar units) with calmodulin is 6.72.
Take “GHP-G30 (headpiece region and 30kDa domain of 4.1G) (from UniProt O43491 1-1005) (domain or fragment)”: in the test with calmodulin, the pKd was 5.53 and the kon – broadly, a measure of how fast the partners come together – was 180000 M⁻¹ s⁻¹.
Turning to “complex of RHP-G30 and CaM (from UniProt P11171 1-209; P0DP23 1-149)”, the pKd in the test with p55 [1] is 5.75; in test [2], 5.66; in [3], 5.83; in [4], 6.13; in the test with p55 [5] it was 6.95; in test [6], 6.74. The pKd is 6.63 in test [7] and 6.50 in test [8]. Further, the koff (in general, a measure of how fast the partners let go of each other) with p55 [1] was 0.012 s⁻¹; in test [4] it was 0.019 s⁻¹; in [6], 0.012 s⁻¹; in test [8], 0.016 s⁻¹. Besides, the on-rate (kon) stood at 25000 M⁻¹ s⁻¹ in test [4] and 51000 M⁻¹ s⁻¹ in test [8].
